What all share (assay): SEC-MALS
For orientation: In gel filtration, larger molecules generally elute earlier.

Data set [1] addresses homospermidine synthase (HSS) from Distimake quinquefolius individuum 1 (Distimake quinquefolius).
For data set [2], the target named is homospermidine synthase (HSS) from Distimake quinquefolius individuum 2 (Distimake quinquefolius).
The target of data set [3] is homospermidine synthase (HSS) from Ipomoea alba (Ipomoea alba).
Data set [4] deals with the molecule itself.
Data set [5] deals with the molecule itself. This is another data set of the same source.

Like-named read-outs stand apart in the source and are kept apart here.

Molecule “homospermidine synthase (HSS) from Distimake quinquefolius individuum 1 (enzyme)” had a stoichiometry N in data set [1] of 4.
For the molecule “homospermidine synthase (HSS) from Distimake quinquefolius individuum 2 (enzyme)”, in data set [2], the stoichiometry N amounted to 4.
For “homospermidine synthase (HSS) from Ipomoea alba (enzyme)”, the stoichiometry N in data set [3] was 4.

B1: homospermidine synthase (HSS) from Camonea umbellata (enzyme, UniProt A0A6M4MJB9 1-377, looked up)
chain: MGEATRDQNSTMDSAHAAVFKKSESLDGACMKIEGYDFNRGIDYPQLLKSLLSTGFQASNLGEAIQIVNEMLDWRLSHEPIMEDCNDKEKDPAYRDSVTTKIFLGFTSNLVSSGVRETIRYLVQHHMVDVVVTTAGGIEEDLIKCLAPTYKGEFSLRGSVLRSKGLNRIGNLLVPNDNYCKFEDWIIPIFDQMYEEQTKQNVLWTPSKVIARLGKEINDESSYLYWAYKNEIPVFCPSLTDGSLGDMLYFHSFTKEVADNSDRNPGLIVDIVGDIRAMDGEAVHAGSRKTGVLILGGGLPKHHICNANMMRNGADFAAYINTAQEFDGSDSGARPDEAVSWGKIRCEAKTVKVHCDATIAFPLLVAETFATKARKLH
Consider B1, for which the figures for the “stoichiometry N” value in the data set “SEC-MALS [4]” and in the data set “SEC-MALS [5]” were 2 and 4, respectively.

A word on the stoichiometry N: it is a count of units in the complex or per binding partner.
